In patent US8658372 one finds lowest detectable concentration data, which are given here for one substance.

This test addresses botulinum toxoid A (UniProt P0DPI0). The test is described as follows: Luminex AMP-capture assay with antibody tracers.

Sequence of botulinum toxoid A (P0DPI0 2-1296): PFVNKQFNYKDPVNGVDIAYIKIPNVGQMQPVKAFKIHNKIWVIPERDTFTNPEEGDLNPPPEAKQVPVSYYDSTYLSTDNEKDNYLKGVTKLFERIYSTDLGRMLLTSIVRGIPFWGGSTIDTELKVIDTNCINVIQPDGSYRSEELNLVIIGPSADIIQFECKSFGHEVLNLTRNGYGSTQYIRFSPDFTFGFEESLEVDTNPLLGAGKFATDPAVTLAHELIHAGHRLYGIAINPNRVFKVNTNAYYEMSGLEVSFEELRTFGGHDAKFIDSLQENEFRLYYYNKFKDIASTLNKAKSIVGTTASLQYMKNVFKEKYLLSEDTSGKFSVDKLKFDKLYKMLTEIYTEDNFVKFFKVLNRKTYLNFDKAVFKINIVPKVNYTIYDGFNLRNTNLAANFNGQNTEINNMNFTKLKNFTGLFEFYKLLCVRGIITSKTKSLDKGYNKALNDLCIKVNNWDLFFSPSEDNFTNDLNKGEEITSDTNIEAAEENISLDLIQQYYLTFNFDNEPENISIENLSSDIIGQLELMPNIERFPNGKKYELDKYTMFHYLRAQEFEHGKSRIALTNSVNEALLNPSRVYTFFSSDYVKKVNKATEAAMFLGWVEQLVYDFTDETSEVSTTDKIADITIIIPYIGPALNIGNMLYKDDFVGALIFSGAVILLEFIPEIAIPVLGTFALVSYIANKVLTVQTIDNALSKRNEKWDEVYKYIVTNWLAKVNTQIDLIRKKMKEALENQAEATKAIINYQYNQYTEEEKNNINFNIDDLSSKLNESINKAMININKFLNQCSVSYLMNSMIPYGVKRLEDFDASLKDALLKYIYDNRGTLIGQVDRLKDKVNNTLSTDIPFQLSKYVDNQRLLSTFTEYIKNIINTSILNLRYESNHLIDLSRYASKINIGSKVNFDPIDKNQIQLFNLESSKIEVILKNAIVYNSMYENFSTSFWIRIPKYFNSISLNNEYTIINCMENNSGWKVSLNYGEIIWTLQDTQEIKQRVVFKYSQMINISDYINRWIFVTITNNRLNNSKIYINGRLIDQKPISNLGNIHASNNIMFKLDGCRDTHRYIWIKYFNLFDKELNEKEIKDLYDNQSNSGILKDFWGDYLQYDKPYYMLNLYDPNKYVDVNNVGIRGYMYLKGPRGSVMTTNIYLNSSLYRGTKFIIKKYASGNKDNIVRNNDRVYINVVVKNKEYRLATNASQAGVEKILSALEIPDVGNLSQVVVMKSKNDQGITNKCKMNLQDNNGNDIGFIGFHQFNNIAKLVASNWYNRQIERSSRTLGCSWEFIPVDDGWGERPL

In turn, AMP-derivatized Luminex beads displayed a lowest detectable concentration of 1 µg/mL.
